According to the supplement of paper PMC10126150:
± gives the standard deviation of the averaged measurements.

System: ATP
Experiment: switch fluorescence ratio, 500 uM ATP over buffer (Cy3 cluster intensity, sum of 5 cycles each) (fold (ratio)); higher = stronger signal-on switching upon ATP binding; sequences stand for … in TCGTCGGCAGCGTCAGATGTGTATAAGAGACAGTTTTTTTTTTTTTTTTTTTTTTTTT…TC
Conditions: aptamer strand: ATP DNA aptamer (quencher-CACCTGGGGGAGTATTGCGGAGGAAGG + anchor), 100 nM annealed; ATP concentration: 500 uM
In short: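 Cy3-labelled switching-strand clusters on a modified Illumina MiSeq flow-cell were annealed to 100 nM quencher-labelled ATP aptamer, imaged in selection buffer, then imaged after 15 min with 500 uM ATP at 22 °C. Five buffer/ATP cycles ran, with NaOH stripping and re-annealing between them. The fluorescence ratio is summed target-cycle over summed buffer-cycle Cy3 intensity per cluster, averaged per switch-domain sequence. Clusters outside 100-1000 RFU were excluded.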
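Note: ATP exposure 15 min at 22 °C before imaging.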

Sequence | switch fluorescence ratio
TTATTATGCC | 1.02 ± 0.061
CAATAGGGGG | 1 ± 0.027
GCAGTTTTA | 1 ± 0.014
TTCTAATCGG | 1.006 ± 0.01
AAAGAAGGGG | 0.995 ± 0.015
TGTTGGTGC | 1.04 ± 0.013
TGGGTGGGCT | 0.975 ± 0.011
ATCCCTCATA | 1.01 ± 0.018
CAGTTCTCTA | 0.981 ± 0.0068
GGATTTGAGT | 0.976 ± 0.015
ACTGTTAGTA | 1.01 ± 0.011
GGGACTTTAC | 1.18 ± 0.038
CCCAATTCCT | 1.14 ± 0.031
CGACAGATGT | 1.01 ± 0.018
CATTTTTTTG | 1 ± 0.017
TAGGGTGAGT | 1.02 ± 0.035
CGTGAGTTGG | 0.992 ± 0.014
GTTGTGGGGG | 1.01 ± 0.049
GGTCGGCGGG | 1.03 ± 0.1
GGTCTCTGGA | 1.01 ± 0.06
AAGTTGCGCT | 1 ± 0.034
TAGTGTATTA | 1.01 ± 0.018
TTAAAATAGA | 1.07 ± 0.1

Sequence | switch fluorescence ratio
GATTTGTAGG | 1.01 ± 0.0069
TGCAGCTGGA | 0.977 ± 0.022
TGGGGGGTTG | 1.02 ± 0.049
AGCTGTACGG | 1.029 ± 0.0084
ACTAGGGTAT | 0.982 ± 0.061
TTTGATACGG | 1 ± 0.028
ATGGACCTGC | 1.06 ± 0.064
GGGACAAGTC | 1.023 ± 0.0067
AGGCAACGGT | 1.01 ± 0.012
TATTAGTAGC | 0.9995 ± 0.0013
GCAGGCTTGG | 1.012 ± 0.0061
TTTTGAACCC | 0.984 ± 0.08
TGTATTCGGG | 0.978 ± 0.01
GGTTGGTATG | 0.987 ± 0.027
TTATGTAAGG | 0.971 ± 0.014
CATTTGGCGG | 1 ± 0.013
AGGTTGCTCT | 0.9947 ± 0.0098
TTCCAGGATT | 1.04 ± 0.089
GTTCACGGGA | 1 ± 0.058
AAGACTCTGG | 0.973 ± 0.044
TAGTGACACG | 1.03 ± 0.045
AAGTAATAGG | 1.03 ± 0.019
GAGGAGTGGT | 0.984 ± 0.015

Sequence | switch fluorescence ratio
TGAAGTTTTT | 1.02 ± 0.064
TGCCCTTTTT | 1.01 ± 0.095
GAAGGAAGTG | 1 ± 0.034
GGCGGGTTGG | 0.998 ± 0.048
GATATATATG | 1.01 ± 0.015
AAGTTGAATT | 0.99 ± 0.029
AGTCCCGTGC | 1.03 ± 0.052
GGCAGGATAT | 1.016 ± 0.0056
ATCAGTATTA | 1.02 ± 0.016
TGAAGGTTGG | 1.02 ± 0.025
CTTTATGGTT | 0.99 ± 0.065
TCTATTTTGT | 0.988 ± 0.017
CTCGTTGGGG | 0.979 ± 0.015
CAGCTCTGGG | 1 ± 0.022
GTAGTAGCGT | 0.969 ± 0.022
GCCATTTTGA | 0.956 ± 0.037
TAGGGCAAGT | 1.01 ± 0.016
TACATTCGTC | 1.07 ± 0.075
TAAGGTGGGA | 0.996 ± 0.03
CTAACGAGGG | 0.9731 ± 0.0043
TAAGAGCCAT | 1.04 ± 0.013
ATGGTGGGGA | 1.03 ± 0.03
GCGTATGCCC | 1.019 ± 0.0062

Sequence | switch fluorescence ratio
GTCACAGGCT | 1.02 ± 0.026
CGTAGTTTTG | 1.007 ± 0.0074
GGGGATATGC | 0.995 ± 0.048
TAGCGTTAGG | 1.029 ± 0.0049
ATAAAGACGT | 1.02 ± 0.037
AGTATGAGTC | 1.056 ± 0.01
ATGGGCGATG | 1.01 ± 0.055
CATTTGTTCT | 1 ± 0.049
GGGGACCTAC | 1.08 ± 0.022
ATGATGGTTC | 1.01 ± 0.012
TAAGTATTTT | 1.01 ± 0.027
TTATGCTATT | 1 ± 0.022
ACATTATTTC | 1.05 ± 0.033
GGGCAAGGTT | 0.9682 ± 0.0065
ATTTGAGGGG | 0.998 ± 0.035
GACGACGGGT | 1.27 ± 0.041
ACGGTTCAAT | 1.05 ± 0.011
TAGATGATGT | 1.004 ± 0.01
GCTCATAGAT | 0.988 ± 0.013
GGGGGTCCGA | 0.9855 ± 0.0042
TTCACTTGGA | 1.03 ± 0.033
AATGTTCACG | 1.02 ± 0.019
AAGTTGGGGA | 0.996 ± 0.021

Sequence | switch fluorescence ratio
TACATATGTC | 1.04 ± 0.077
GGGGTAGGGC | 1.04 ± 0.057
ATCCCTAAAA | 1.0207 ± 0.00031
AAGGGATTGT | 1.18 ± 0.26
TTAGGTTGCA | 0.9809 ± 0.0092
GCGAAAGGCT | 1.03 ± 0.024
GCCTTAATCT | 1.01 ± 0.038
ACCCGAGCAC | 2.13 ± 0.054
CCAAGCGCCG | 1.12 ± 0.13
TTAAGTAGTA | 0.9679 ± 0.0025
AGTGAAGGGG | 1.1 ± 0.15
GATATATGCT | 1 ± 0.013
GGTTTGTTGT | 0.972 ± 0.022
CGGCTGTGTG | 0.974 ± 0.02
CAATGCGTTT | 0.998 ± 0.038
GAGAAGGAGG | 1.01 ± 0.012
AAGCTTTTGT | 0.9849 ± 0.0084
CGGAGGGGGT | 1.016 ± 0.0052
AACGGAGCTT | 1.47 ± 0.25
GGGCGGGCTG | 1.006 ± 0.0084
TGAGCTTAGA | 1.02 ± 0.054
TGTATGGCGC | 1.01 ± 0.058
GCACTCTGGG | 0.995 ± 0.029

Sequence | switch fluorescence ratio
TGAGAAATGG | 1.02 ± 0.036
TGGGGCGTTG | 1.01 ± 0.019
GAAGATGGGG | 1.01 ± 0.024
GGTGGGTCGT | 1.014 ± 0.0095
GAGGGTGAGT | 0.9809 ± 0.0054
TGTTGTTGAA | 1.01 ± 0.042
TTCAGATTGC | 0.987 ± 0.044
AATTTGGGGG | 1.02 ± 0.039
ATGGATGTGG | 0.979 ± 0.055
AGCGCCTCAG | 1.003 ± 0.0081
GGGTCCGAAT | 1.02 ± 0.016
GGGCATTGAA | 0.9895 ± 0.0022
AGCTGAGGAG | 1.0063 ± 7.3e-05
TGTTGGGACT | 1.17 ± 0.24
AGGAGTGTTT | 1 ± 0.037
TCCACATCAA | 1.197 ± 0.0086
TTTCTCGTAG | 0.991 ± 0.016
TTGGATTATG | 1.01 ± 0.012
ATAGGTATGC | 1 ± 0.06
AGAGGAGTGC | 0.958 ± 0.056
TTTTCTTGGT | 1.01 ± 0.012
TTATTTTAGC | 0.976 ± 0.019
GATATTATTT | 0.998 ± 0.024

Sequence | switch fluorescence ratio
AATGGGGCTT | 0.995 ± 0.03
GCTGAACTTC | 0.9804 ± 0.0089
AAATTCGGGA | 0.9799 ± 0.0032
CTCTGCGTCA | 1.32 ± 0.025
GGGTGGGTGC | 1.02 ± 0.048
AAGTTTTGGG | 0.974 ± 0.02
AGGGCGAAGA | 0.96 ± 0.022
GGGTTGTCGA | 0.952 ± 0.011
GGGAGTAGGG | 0.998 ± 0.015
CCTGGGGTTT | 1.09 ± 0.15
TTTGGGAACT | 1 ± 0.021
CAGTAAGAAT | 0.9809 ± 0.0019
ACACGGGCCT | 1.03 ± 0.062
GCTCGTGATA | 1.21 ± 0.05
TCCAGTAGGT | 1.01 ± 0.0032
AGACCCTTTT | 0.994 ± 0.037
TCAATCGTTG | 1.05 ± 0.016
CGTGTGTTGC | 1 ± 0.024
AGTCAAACGA | 1.03 ± 0.028
